Data published in paper doi:10.1101/2025.04.30.25326597.

Biological target: BORCS5 L128Vfs*86, C-terminally GFP-tagged (human) (UniProt Q969J3)
Experiment: co-IP; GFP-Trap agarose precipitation of C-terminally GFP-tagged BORCS5 constructs from lysates of transfected cells 24 h after transfection (10 mM Tris-Cl pH 7.5, 150 mM NaCl, 0.5 mM EDTA, 1% Triton X-100, 10% glycerol), 2 h at 4°C, five washes; endogenous SNAPIN and BORCS7 detected by immunoblotting; GFP alone as control

percent less co-immunoprecipitated than with WT: 30%
B1: BORCS7 (natural protein)
chain: MMATGTPESQARFGQSVKGLLTEKVTTCGTDVIALTKQVLKGSRSSELLGQAARNMVLQEDAILHSEDSLRKMAIITTHLQYQQEAIQKNVEQSSDLQDQLNHLLK
